In paper PMC6092412:

Columns and labels:
[1] = molecular target: FlhF-His6 (Vibrio alginolyticus FlhF with a C-terminal His6 tag) (V. alginolyticus); assay: SEC; purified FlhF kept on ice 10 min with 1 mM GTP; SuperDex 75 Increase in 20 mM Tris-HCl pH 8.0, 300 mM NaCl, 10 mM MgCl2, 1 mM GTP; fractions blotted with anti-FlhF antibody
[2] = molecular target: FlhF-His6 (Vibrio alginolyticus FlhF with a C-terminal His6 tag) (V. alginolyticus)

Substance | stoichiometry N [1] | GTPase activity of FlhF: inorganic phosphate released in 30 min by 1 μM FlhF mixed with 1 μM FlhG (FlhF alone 5.3 μM; background sample 4.3 μM) [2] [µM]
FlhF-His6 (Vibrio alginolyticus FlhF with a C-terminal His6 tag) (enzyme) | 2 | –
His-tagged FlhG (his6-tev-flhG in pTrcHisB) (enzyme) | – | 8.5
